This note sets out measurements from article PMC5409479.

For test [1], the target named is human GLP-1R Y69azF (human) (UniProt P43220).
Test [2] concerns the target human GLP-1R S116azF (human) (UniProt P43220).
The target of test [3] is human GLP-1R S117azF (human) (UniProt P43220).
The target in test [4] is human GLP-1R F103azF (human) (UniProt P43220).
Test [5] deals with human GLP-1R A70azF (human) (UniProt P43220).
The target of test [6] is human GLP-1R E138azF (human) (UniProt P43220).
Test [7] deals with human GLP-1R S31azF (human) (UniProt P43220).
Chain of human GLP-1R S31azF (human) (P43220 other isoform, or with tags, fused parts or gaps): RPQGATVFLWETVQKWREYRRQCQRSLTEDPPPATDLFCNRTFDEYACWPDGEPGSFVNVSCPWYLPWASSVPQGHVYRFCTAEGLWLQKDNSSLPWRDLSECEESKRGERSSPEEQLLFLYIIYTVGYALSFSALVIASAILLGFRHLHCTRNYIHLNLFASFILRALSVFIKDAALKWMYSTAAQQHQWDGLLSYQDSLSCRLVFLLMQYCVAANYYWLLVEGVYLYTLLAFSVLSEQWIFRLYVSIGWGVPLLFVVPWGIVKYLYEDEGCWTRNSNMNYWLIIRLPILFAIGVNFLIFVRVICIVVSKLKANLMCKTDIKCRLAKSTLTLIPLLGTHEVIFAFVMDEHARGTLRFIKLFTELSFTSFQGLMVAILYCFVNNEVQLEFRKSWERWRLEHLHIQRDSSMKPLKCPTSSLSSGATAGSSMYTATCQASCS
Test [8] addresses human GLP-1R S124azF (human) (UniProt P43220).
The target in test [9] is human GLP-1R S135azF (human) (UniProt P43220).
Chain of human GLP-1R S135azF (human) (P43220 24-463 S135F): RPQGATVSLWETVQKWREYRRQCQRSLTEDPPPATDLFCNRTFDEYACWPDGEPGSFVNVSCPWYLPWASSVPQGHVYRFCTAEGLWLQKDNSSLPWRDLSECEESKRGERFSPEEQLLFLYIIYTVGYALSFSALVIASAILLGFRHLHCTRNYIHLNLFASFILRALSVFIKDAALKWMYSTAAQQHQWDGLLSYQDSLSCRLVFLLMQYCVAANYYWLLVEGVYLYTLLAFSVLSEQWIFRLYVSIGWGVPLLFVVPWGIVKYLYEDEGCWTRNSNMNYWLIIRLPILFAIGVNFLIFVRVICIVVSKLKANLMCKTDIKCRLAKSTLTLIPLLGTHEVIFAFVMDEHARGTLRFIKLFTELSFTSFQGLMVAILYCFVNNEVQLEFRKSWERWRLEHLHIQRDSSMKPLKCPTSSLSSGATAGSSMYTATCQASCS
The target of test [10] is human GLP-1R W91azF (human) (UniProt P43220).
Chain of human GLP-1R W91azF (human) (P43220 24-463 W91F): as the sequence (P43220 24-463 S135F) above, with W68F, F112S counted along it
Test [11] addresses human GLP-1R Y42azF (human) (UniProt P43220).
Test [12] addresses human GLP-1R W39azF (human) (UniProt P43220).
In test [13] the target is human GLP-1R W33azF (human) (UniProt P43220).
Chain of human GLP-1R W33azF (human) (P43220 other isoform, or with tags, fused parts or gaps): as the sequence (P43220 24-463 S135F) above, with W10F, F112S counted along it
Test [14] addresses human GLP-1R R40azF (human) (UniProt P43220).
The target of test [15] is human GLP-1R L118azF (human) (UniProt P43220).
Chain of human GLP-1R L118azF (human) (P43220 24-463 L118F): as the sequence (P43220 24-463 S135F) above, with L95F, F112S counted along it
Test [16] addresses human GLP-1R F61azF (human) (UniProt P43220).
For test [17], the target named is human GLP-1R E68azF (human) (UniProt P43220).
Chain of human GLP-1R E68azF (human) (P43220 24-463 E68F): as the sequence (P43220 24-463 S135F) above, with E45F, F112S counted along it
Test [18] has as its target human GLP-1R F80azF (human) (UniProt P43220).
Test [19] addresses human GLP-1R P90azF (human) (UniProt P43220).
The target in test [20] is human GLP-1R E125azF (human) (UniProt P43220).
Chain of human GLP-1R E125azF (human) (P43220 24-463 E125F): as the sequence (P43220 24-463 S135F) above, with E102F, F112S counted along it
Test [21] concerns the target human GLP-1R Y88azF (human) (UniProt P43220).
Test [22] addresses human GLP-1R P119azF (human) (UniProt P43220).
The target of test [23] is human GLP-1R E127azF (human) (UniProt P43220).
Chain of human GLP-1R E127azF (human) (P43220 24-463 E127F): as the sequence (P43220 24-463 S135F) above, with E104F, F112S counted along it
In test [24] the target is human GLP-1R Y101azF (human) (UniProt P43220).
Chain of human GLP-1R Y101azF (human) (P43220 24-463 Y101F): as the sequence (P43220 24-463 S135F) above, with Y78F, F112S counted along it
In test [25] the target is human GLP-1R L89azF (human) (UniProt P43220).
Chain of human GLP-1R L89azF (human) (P43220 24-463 L89F): as the sequence (P43220 24-463 S135F) above, with L66F, F112S counted along it
Test [26] deals with human GLP-1R R134azF (human) (UniProt P43220).
Chain of human GLP-1R R134azF (human) (P43220 24-463 R134F): as the sequence (P43220 24-463 S135F) above, with R111F, F112S counted along it
Test [27] concerns the target human GLP-1R V30azF (human) (UniProt P43220).
The target of test [28] is human GLP-1R T35azF (human) (UniProt P43220).
Chain of human GLP-1R T35azF (human) (P43220 other isoform, or with tags, fused parts or gaps): as the sequence (P43220 24-463 S135F) above, with T12F, F112S counted along it
For test [29], the target named is human GLP-1R V36azF (human) (UniProt P43220).
Chain of human GLP-1R V36azF (human) (P43220 other isoform, or with tags, fused parts or gaps): as the sequence (P43220 24-463 S135F) above, with V13F, F112S counted along it
The target of test [30] is human GLP-1R L123azF (human) (UniProt P43220).
Chain of human GLP-1R L123azF (human) (P43220 24-463 L123F): as the sequence (P43220 24-463 S135F) above, with L100F, F112S counted along it
The target in test [31] is human GLP-1R R121azF (human) (UniProt P43220).
Chain of human GLP-1R R121azF (human) (P43220 24-463 R121F): as the sequence (P43220 24-463 S135F) above, with R98F, F112S counted along it
In test [32] the target is wild-type human glucagon-like peptide-1 receptor (double c-Myc, V5) (human) (UniProt P43220).
Chain of wild-type human glucagon-like peptide-1 receptor (double c-Myc, V5) (human) (P43220 24-463): as the sequence (P43220 24-463 S135F) above, with F112S counted along it
Test [33] deals with human GLP-1R L32azF (human) (UniProt P43220).
Chain of human GLP-1R L32azF (human) (P43220 other isoform, or with tags, fused parts or gaps): as the sequence (P43220 24-463 S135F) above, with L9F, F112S counted along it
The target of test [34] is wild-type human glucagon-like peptide-1 receptor (double c-Myc, V5) (human) (UniProt P43220). The source holds these as a separate data set.

Chain of human GLP-1R S117azF (human) (P43220 24-463 S117F): as the sequence (P43220 24-463 S135F) above, with S94F, F112S counted along it
Chain of human GLP-1R R40azF (human) (P43220 other isoform, or with tags, fused parts or gaps): as the sequence (P43220 24-463 S135F) above, with R17F, F112S counted along it
Chain of human GLP-1R S124azF (human) (P43220 24-463 S124F): as the sequence (P43220 24-463 S135F) above, with S101F, F112S counted along it
Chain of human GLP-1R S116azF (human) (P43220 24-463 S116F): as the sequence (P43220 24-463 S135F) above, with S93F, F112S counted along it
Chain of human GLP-1R P90azF (human) (P43220 24-463 P90F): as the sequence (P43220 24-463 S135F) above, with P67F, F112S counted along it
Chain of human GLP-1R Y88azF (human) (P43220 24-463 Y88F): as the sequence (P43220 24-463 S135F) above, with Y65F, F112S counted along it
Chain of human GLP-1R P119azF (human) (P43220 24-463 P119F): as the sequence (P43220 24-463 S135F) above, with P96F, F112S counted along it
Chain of human GLP-1R A70azF (human) (P43220 24-463 A70F): as the sequence (P43220 24-463 S135F) above, with A47F, F112S counted along it
Chain of human GLP-1R E138azF (human) (P43220 24-463 E138F): as the sequence (P43220 24-463 S135F) above, with F112S, E115F counted along it
Chain of human GLP-1R Y42azF (human) (P43220 other isoform, or with tags, fused parts or gaps): as the sequence (P43220 24-463 S135F) above, with Y19F, F112S counted along it
Chain of human GLP-1R W39azF (human) (P43220 other isoform, or with tags, fused parts or gaps): as the sequence (P43220 24-463 S135F) above, with W16F, F112S counted along it
Chain of human GLP-1R V30azF (human) (P43220 other isoform, or with tags, fused parts or gaps): as the sequence (P43220 24-463 S135F) above, with V7F, F112S counted along it
Chain of human GLP-1R Y69azF (human) (P43220 24-463 Y69F): as the sequence (P43220 24-463 S135F) above, with Y46F, F112S counted along it
Chain of human GLP-1R F61azF (human) (P43220 24-463): as the sequence (P43220 24-463 S135F) above, with F112S counted along it
Chain of human GLP-1R F103azF (human) (P43220 24-463): as the sequence (P43220 24-463 S135F) above, with F112S counted along it
Chain of human GLP-1R F80azF (human) (P43220 24-463): as the sequence (P43220 24-463 S135F) above, with F112S counted along it

For “exendin-4 (from UniProt P26349 48-87) (peptide)”, the exendin-4-mediated cAMP accumulation in HEK293T cells (+azF), pEC50 in test [1] was 10.8 -log10 M; in test [2], 11.4 -log10 M; in [3], 11.1 -log10 M; in test [4], 11.4 -log10 M; in [5], 9.1 -log10 M; in [6], 11 -log10 M. Besides, the exendin-4-mediated cAMP accumulation in HEK293T cells (+azF), pEC50 is 11.1 -log10 M in [7]; 11.4 -log10 M in test [8]; 11.5 -log10 M in test [9]; 11.5 -log10 M in [10]; 10.6 -log10 M in [11]; 10.6 -log10 M in test [12]. Besides, the exendin-4-mediated cAMP accumulation in HEK293T cells (+azF), pEC50 in test [13] is 11.4 -log10 M; in test [14], 11.5 -log10 M; in [15], 11.5 -log10 M; in [16], 11.3 -log10 M; in test [17], 11.4 -log10 M; in [18], 11.3 -log10 M. In addition, the exendin-4-mediated cAMP accumulation in HEK293T cells (+azF), pEC50 was 9.9 -log10 M in test [19]; 10.3 -log10 M in [20]; 10.6 -log10 M in [21]; 11.4 -log10 M in [22]; 10.8 -log10 M in test [23]; 11.5 -log10 M in [24]. The exendin-4-mediated cAMP accumulation in HEK293T cells (+azF), pEC50 was 9.6 -log10 M in test [25]; 11.1 -log10 M in test [26]; 11.2 -log10 M in test [27]; 9.5 -log10 M in [28]; 11.4 -log10 M in test [29]; 11.2 -log10 M in test [30]. Moreover, the exendin-4-mediated cAMP accumulation in HEK293T cells (+azF), pEC50 in test [31] is 10 -log10 M; in test [33] it was 11.1 -log10 M. Moreover, the exendin-4-mediated cAMP accumulation in HEK293T cells, pEC50 in test [32] is 10.8 -log10 M.

fluorescein(Lys-20)-exendin-4 (peptide): the cAMP accumulation in HEK293T cells transiently expressing the human GLP-1R, pEC50 in test [34] is 9.3 -log10 M.
